In patent US20110143963A1:

What was measured:
[1] = molecular target: SH2 domain of human Grb2 (human), P62993; experiment: panel E, competition phage ELISA: wtSH2 (Grb2-SH2) phages incubated with free pY1208 peptide (0 to about 2200 nM), phages not bound to the free peptide captured and detected
[2] = molecular target: SUMO-ARVCF fusion protein (yeast); experiment: SPR, equilibrium mode, target peptide fused to yeast SUMO
[3] = molecular target: ARVCF peptide PQPVDSWV-COOH (eight-residue motif corresponding to the ARVCF C-terminus); experiment: SPR
[4] = molecular target: δ-catenin peptide PASPDSWV-COOH; experiment: SPR
[5] = molecular target: ARVCF peptide PQPVDSWV-COOH (eight-residue motif corresponding to the ARVCF C-terminus); experiment: SPR (BIAcore)
[6] = molecular target: δ-catenin peptide PASPDSWV-COOH; experiment: SPR (BIAcore)
[7] = molecular target: ARVCF peptide PQPVDSWV-COOH (eight-residue motif corresponding to the ARVCF C-terminus); experiment: SPR, ratio of Kd
[8] = molecular target: δ-catenin peptide PASPDSWV-COOH; experiment: SPR, ratio of Kd
[9] = molecular target: ARVCF peptide PQPVDSWV-COOH (eight-residue motif corresponding to the ARVCF C-terminus); experiment: IC50 for the ARVCF peptide; method not stated with the table
[10] = molecular target: δ-catenin peptide PASPDSWV-COOH; experiment: SPR (BIAcore), column δ-Catenin; number at the left of panel F (on rate per paragraph 112), unit from the column head of Table 4
[11] = molecular target: δ-catenin peptide PASPDSWV-COOH; experiment: SPR (BIAcore), column δ-Catenin; number at the right of panel F (off rate per paragraph 112), unit from the column head of Table 4
[12] = molecular target: δ-catenin peptide PASPDSWV-COOH; experiment: SPR, ratio of Kd; ratio Kd(δ-catenin)/Kd(ARVCF) derived from the same SPR values, not a separate measurement
[13] = molecular target: δ-catenin peptide PASPDSWV-COOH; experiment: SPR (BIAcore); SPR, soluble ePDZ-b; only a lower bound on Kd (very weak binding); same conditions as the other rows
[14] = molecular target: ARVCF peptide with Ala substitution at position -4; experiment: SPR, Ala scan of the ARVCF peptide

Chain of SH2 domain of human Grb2 (human), P62993 (P62993 56-153 limits assumed): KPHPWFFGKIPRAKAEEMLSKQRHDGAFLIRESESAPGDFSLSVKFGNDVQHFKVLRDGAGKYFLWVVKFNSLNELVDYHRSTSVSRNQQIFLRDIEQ

| Kd [3] | koff [3] | kon [3] | Kd [5] | Affinity Enhancement (Kd of cpPDZFN for ARVCF / Kd of the clamp) [7] | Specificity Index (Kd for δ-catenin / Kd for ARVCF) [8] | IC50 [9] | Binder | also measured |
| --- | --- | --- | --- | --- | --- | --- | --- | --- |
|  |  |  |  |  |  |  | NEPLYLNTFANTC (modifications not checked) [peptide corresponding to residues 1204-1216 of ErbB4 receptor (pY1208)] | IC50 [1]: 120 nM |
|  |  |  |  |  |  |  | circularly permutated PDZ domain (designed binder) PELGFSISGGVGGRGNPFRPDDDGIFVTRVQPEGPASKLLQPGDKIIQANGYSFINIEHGQAVSLLKTFQNTVELIIVREVGNGAKQEIRVRVEKD | Kd [2]: 11000 nM |
| 56 nM | 0.015 s⁻¹ | 290000 M⁻¹ s⁻¹ | 56 nM | 520 fold | 8 fold | 40 nM | enhanced PDZ-a (designed binder) MKHHHHHHHHHHSSDYKDDDDKGENLYFQGSPELGFSISGGVGGRGNPFRPDDDGIFVTRVQPEGPASKLLQPGDKIIQANGYSFINIEHGQAVSLLKTFQNTVELIIVREVGNGAKQEIRVRVEKDGGSGGVSSVPTNLEVVAATPTSLLISWDASYYGVSYYRITYGETGGNSPVQEFTVPYSSSTATISGLKPGVDYTITVYAYSDYYGSHHYSPISINYRT | Kd [4]: 429 nM; Kd [6]: 430 nM; kon [10]: 250000 M⁻¹ s⁻¹; koff [11]: 0.11 s⁻¹ |
| 56 nM | 0.011 s⁻¹ | 190000 M⁻¹ s⁻¹ | 56 nM | 520 fold |  | 59 nM | enhanced PDZ-b (designed binder) MKHHHHHHHHHHSSDYKDDDDKGENLYFQGSPELGFSISGGVGGRGNPFRPDDDGIFVTRVQPEGPASKLLQPGDKIIQANGYSFINIEHGQAVSLLKTFQNTVELIIVREVGNGAKQEIRVRVEKDGGSGGVSSVPTNLEVVAATPTSLLISWDAYYDSHVSYYRITYGETGGNSPVQEFTVPGSKSTATISGLKPGVDYTITVYAHYNYHYYSSPISINYRT | Specificity Index (Kd for δ-catenin / Kd for ARVCF) [12]: > 178 fold; Kd [13]: > 10000 nM |
| 5 nM | < 0.00037 s⁻¹ | 73000 M⁻¹ s⁻¹ |  | 4960 fold | > 2000 fold |  | ePDZ-b1 (designed binder) MKHHHHHHHHHHSSDYKDDDDKGENLYFQGSPELGFSISGGVGGRGNPFRPDDDGIFVTRVQPEGPASKLLQPGDKIIQANGYSFINIEHGQAVSLLKTFQNTVELIIVREVGNGAKQEIRVRVEKDGGSGGVSSVPTNLEVVAATPTSLLISWDAYRELPVSYYRITYGETGGNSPVQEFTVPGSKSTATISGLKPGVDYTITVYAHYNYHYYSSPISINYRT | fold reduction in affinity against the wild-type ARVCF peptide [14]: > 200 fold |
